Article PMC12581312, “Lung endothelial PEAR1 induces tumor cell dormancy” (Molecular Cancer, 2025)

Target: T1, Human recombinant LOXL2 (lysyl oxidase like 2) (human, UniProt Q9Y4K0 26-774)
T1 construct: lysyl oxidase like 2 (LOXL2), human, recombinant; source: bought: R&D Systems (catalog #2639-AO-010)
T1 sequence (looked up): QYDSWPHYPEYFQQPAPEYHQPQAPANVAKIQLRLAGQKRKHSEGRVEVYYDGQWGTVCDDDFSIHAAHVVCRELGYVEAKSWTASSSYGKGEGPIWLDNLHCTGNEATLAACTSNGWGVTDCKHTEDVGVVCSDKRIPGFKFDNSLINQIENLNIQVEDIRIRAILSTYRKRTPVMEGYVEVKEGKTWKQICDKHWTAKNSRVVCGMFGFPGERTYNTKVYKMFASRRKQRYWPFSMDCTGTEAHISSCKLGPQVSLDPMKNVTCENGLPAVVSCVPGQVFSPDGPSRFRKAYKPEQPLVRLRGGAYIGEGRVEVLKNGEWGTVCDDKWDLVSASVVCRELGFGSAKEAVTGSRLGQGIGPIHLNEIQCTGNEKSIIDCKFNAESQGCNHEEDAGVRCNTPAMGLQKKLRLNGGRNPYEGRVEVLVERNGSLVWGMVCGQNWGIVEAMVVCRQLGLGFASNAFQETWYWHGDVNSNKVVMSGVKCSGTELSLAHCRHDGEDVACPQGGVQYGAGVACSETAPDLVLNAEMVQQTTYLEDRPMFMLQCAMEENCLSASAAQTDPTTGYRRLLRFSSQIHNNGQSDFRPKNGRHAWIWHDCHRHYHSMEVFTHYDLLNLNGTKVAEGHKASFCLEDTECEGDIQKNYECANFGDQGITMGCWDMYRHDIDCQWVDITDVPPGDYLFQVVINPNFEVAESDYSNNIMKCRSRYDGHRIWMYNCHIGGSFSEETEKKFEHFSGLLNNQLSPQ
Experiment: pull-down; recombinant human PEAR1 (100 nM) immobilised on Ni-NTA magnetic beads, incubated with 100 nM recombinant human CTSD, SEMA6D or LOXL2 in 50 mM NaH2PO4, 300 mM NaCl, 20 mM imidazole, pH 8.0, 1 h at room temperature; control Ni-NTA beads; immunoblotting
Conditions: both partners purified

- binding result: binds
B1: Human recombinant PEAR1 extracellular part (platelet and endothelial aggregation receptor 1), His-tagged (domain or fragment, UniProt Q5VY43 21-755, looked up)
chain: LNPSDPNTCSFWESFTTTTKESHSRPFSLLPSEPCERPWEGPHTCPQPTVVYRTVYRQVVKTDHRQRLQCCHGFYESRGFCVPLCAQECVHGRCVAPNQCQCVPGWRGDDCSSECAPGMWGPQCDKPCSCGNNSSCDPKSGVCSCPSGLQPPNCLQPCTPGYYGPACQFRCQCHGAPCDPQTGACFCPAERTGPSCDVSCSQGTSGFFCPSTHSCQNGGVFQTPQGSCSCPPGWMGTICSLPCPEGFHGPNCSQECRCHNGGLCDRFTGQCRCAPGYTGDRCREECPVGRFGQDCAETCDCAPDARCFPANGACLCEHGFTGDRCTDRLCPDGFYGLSCQAPCTCDREHSLSCHPMNGECSCLPGWAGLHCNESCPQDTHGPGCQEHCLCLHGGVCQATSGLCQCAPGYTGPHCASLCPPDTYGVNCSARCSCENAIACSPIDGECVCKEGWQRGNCSVPCPPGTWGFSCNASCQCAHEAVCSPQTGACTCTPGWHGAHCQLPCPKGQFGEGCASRCDCDHSDGCDPVHGRCQCQAGWMGARCHLSCPEGLWGVNCSNTCTCKNGGTCLPENGNCVCAPGFRGPSCQRSCQPGRYGKRCVPCKCANHSFCHPSNGTCYCLAGWTGPDCSQPCPPGHWGENCAQTCQCHHGGTCHPQDGSCICPLGWTGHHCLEGCPLGTFGANCSQPCQCGPGEKCHPETGACVCPPGHSGAPCRIGIQEPFTVMPTTPVAYNSL
notes: platelet and endothelial aggregation receptor 1 (PEAR1), human, extracellular part; Held on Ni-NTA magnetic agarose beads by its His tag in the pull-downs; also called rhPEAR1; PEAR1 agarose; source: bought: R&D Systems (catalog #4527-PR-050)
